According to patent US20230105982A1 (Merck Sharp & Dohme, published 2023):
Starred links: 1 amine or outer side, 2 acyl side, 3 side chain; linkers in the order of their positions; H or OH if unused. Non-standard residues stand in square brackets, D forms with d. Groups on a side chain read outwards from the residue. No end group written: not given here. *: point of attachment. C16 = C16 fatty acyl group, not further defined; C18 diacid = O=C(O)CCCCCCCCCCCCCCCCC(=O)*; Lys(N3) = [N-]=[N+]=NCCCC[C@H](N)C(=O)O; γGlu = O=C(O)[C@H](CCC(=O)[*:2])N[*:1]; Met(O2) = CS(=O)(=O)CC[C@H](N)C(=O)O; Palmitoyl = CCCCCCCCCCCCCCCC(=O)*; AEEA = NCCOCCOCC(=O)O; Aib = CC(C)(N)C(=O)O

B1: PEP76 (control molecule of Table 7) (peptide)
peptide: H[dS]QGTFTSDK([γGlu-γGlu-Palmitoyl])SKYLDERAAQDFVQWLLDT-NH2
modifications: N-terminus assumed
SMILES: CCCCCCCCCCCCCCCC(=O)N[C@@H](CCC(=O)N[C@@H](CCC(=O)NCCCC[C@H](NC(=O)[C@H](CC(=O)O)NC(=O)[C@H](CO)NC(=O)[C@@H](NC(=O)[C@H](Cc1ccccc1)NC(=O)[C@@H](NC(=O)CNC(=O)[C@H](CCC(N)=O)NC(=O)[C@@H](CO)NC(=O)[C@@H](N)Cc1c[nH]cn1)[C@@H](C)O)[C@@H](C)O)C(=O)N[C@@H](CO)C(=O)N[C@@H](CCCCN)C(=O)N[C@@H](Cc1ccc(O)cc1)C(=O)N[C@@H](CC(C)C)C(=O)N[C@@H](CC(=O)O)C(=O)N[C@@H](CCC(=O)O)C(=O)N[C@@H](CCCNC(=N)N)C(=O)N[C@@H](C)C(=O)N[C@@H](C)C(=O)N[C@@H](CCC(N)=O)C(=O)N[C@@H](CC(=O)O)C(=O)N[C@@H](Cc1ccccc1)C(=O)N[C@H](C(=O)N[C@@H](CCC(N)=O)C(=O)N[C@@H](Cc1c[nH]c2ccccc12)C(=O)N[C@@H](CC(C)C)C(=O)N[C@@H](CC(C)C)C(=O)N[C@@H](CC(=O)O)C(=O)N[C@H](C(N)=O)[C@@H](C)O)C(C)C)C(=O)O)C(=O)O

Tests used:
Experiment in all cases: cell-based or functional assay
[1] = target: human Glucagon receptor (GCGR) (human, UniProt P47871 26-477)
[2] = target: human GLP-1 receptor (GLP1R) (human, UniProt P43220 24-463)
human GLP-1 receptor = human GLP-1 receptor (human, UniProt P43220 24-463)
human glucagon receptor = human glucagon receptor (human, UniProt P47871 26-477)

| Binder | hGCGR_EC50 (nM), cAMP assay [1] [nM] | hGLP1R EC50 (nM), cAMP assay [2] [nM] | Incretin Receptor Assay (cAMP) EC50 (human GLP-1 receptor) [nM] | Incretin Receptor Assay (cAMP) EC50 (human glucagon receptor) [nM] |
| --- | --- | --- | --- | --- |
| HXEGTFTSDKSKYLDERAAQDFVXWLLDT (D-serine at 2; Lys 10 conjugated to γEγE-C16; Nle(εN3) at 24; C-terminal amide) [PEP75] | > 5 | – | – | – |
| H[Aib]QGTFTSDYSKYLDARAAK([AEEA-AEEA-γGlu-C18 diacid])DFV[Lys(N3)]WL[Met(O2)]DT-NH2 [PEP30] | 2.27 | 0.5 | – | – |
| B1 | – | – | 0.007 | 0.009 |
| H[Aib]QGTFTSDYSKYLDARAAK([AEEA-AEEA-γGlu-C20‑OH])DFV[Lys(N3)]WL[Met(O2)]DT-NH2 [PEP31] | 4.24 | 1.38 | – | – |
| H[dS]QGTFTSDK([γGlu-γGlu-C16])SKYLDERAAQ[Lys(N3)]FVQWLLDT-NH2 [PEP1] | 0.01 | – | – | – |
